Assays:
OSBP = target: T1, OSBP (Homo sapiens, UniProt P22059); test: liposome sterol transfer, DHE to dansyl-PE FRET; format: biochemical; conditions: lipid transfer substrate (not catalysis); with RELCH, Rab11a(Q70A)-His/GTP and myristoylated Arf1(Q71L)-Flag; RE-like donor and Golgi-like PI4P acceptor liposomes; 200 nM OSBP; pH 7.2; room temperatur
T1 construct: full-length, Flag-tagged, tag kept; 807 residues (deletion series ends at 807)

His-RELCH [1] = target: T2, His-RELCH (mouse, UniProt Q148V7 1-1216); test: pull-down; 0.5 µg His-RELCH on Ni-NTA beads, 0.5 µg Flag-OSBP in 20 mM Hepes-NaOH pH 7.5, 100 mM NaCl, 5 mM MgCl2 with ethanol, cholesterol or 25-OH, 1 h at 4°C; immunoblot with His and Flag antibodies; conditions: both partners purified
T2 construct: RELCH/KIAA1468, mouse, cDNA NM_173187.3 amplified from a mouse embryo cDNA library; no limits are stated for this construct (deletion constructs are named by their ranges); also called purified recombinant RELCH; His-RELCH protein; source: E. coli XL-1 blue (pQE32tev), purified (Ni-NTA agarose); not shown: His, N-terminal, kept
T2 sequence (looked up): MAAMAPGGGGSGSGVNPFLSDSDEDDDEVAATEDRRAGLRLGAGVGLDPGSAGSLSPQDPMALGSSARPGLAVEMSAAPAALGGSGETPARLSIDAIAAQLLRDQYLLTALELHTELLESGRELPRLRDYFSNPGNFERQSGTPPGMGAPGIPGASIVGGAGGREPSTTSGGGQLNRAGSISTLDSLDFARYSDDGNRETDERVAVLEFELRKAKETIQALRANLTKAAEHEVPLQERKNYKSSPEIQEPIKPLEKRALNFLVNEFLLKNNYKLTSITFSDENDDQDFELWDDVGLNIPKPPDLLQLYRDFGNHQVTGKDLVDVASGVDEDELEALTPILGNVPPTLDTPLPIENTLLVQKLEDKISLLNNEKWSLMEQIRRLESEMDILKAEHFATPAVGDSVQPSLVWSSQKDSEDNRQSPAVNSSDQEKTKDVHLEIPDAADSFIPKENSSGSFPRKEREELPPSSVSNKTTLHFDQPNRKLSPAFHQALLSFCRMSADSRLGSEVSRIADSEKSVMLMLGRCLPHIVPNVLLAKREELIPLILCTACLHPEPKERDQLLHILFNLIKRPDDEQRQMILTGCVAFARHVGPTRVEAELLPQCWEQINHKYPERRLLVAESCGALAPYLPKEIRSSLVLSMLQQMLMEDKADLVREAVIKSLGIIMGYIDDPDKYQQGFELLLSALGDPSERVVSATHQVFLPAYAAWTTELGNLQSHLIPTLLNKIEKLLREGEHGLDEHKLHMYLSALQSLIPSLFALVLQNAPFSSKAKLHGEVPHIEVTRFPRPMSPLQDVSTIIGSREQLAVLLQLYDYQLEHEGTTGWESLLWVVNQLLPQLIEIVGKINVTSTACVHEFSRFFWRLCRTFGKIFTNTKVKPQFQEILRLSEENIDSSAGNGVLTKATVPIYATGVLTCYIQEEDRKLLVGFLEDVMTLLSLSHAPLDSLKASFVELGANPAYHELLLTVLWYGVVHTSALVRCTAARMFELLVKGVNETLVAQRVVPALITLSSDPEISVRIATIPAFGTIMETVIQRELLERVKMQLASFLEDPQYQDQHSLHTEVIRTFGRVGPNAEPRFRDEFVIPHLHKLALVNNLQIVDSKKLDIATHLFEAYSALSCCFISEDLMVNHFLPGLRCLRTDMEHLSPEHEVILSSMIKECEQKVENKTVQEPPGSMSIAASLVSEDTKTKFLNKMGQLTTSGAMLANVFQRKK

[2] = target: T3, GST-RELCH_(497-779) (Rab-binding domain) (mouse, UniProt Q148V7 497-779); test: pull-down; 10 µg GST-RELCH (RBD) on 20 µl Glutathione Sepharose 4B, 10 µg Rab11a (Q70A)-His loaded with GTP in 500 µl; immunoblot with Rab11 and GST antibodies; conditions: both partners purified
T3 construct: also called GST-RELCH (RBD); source: E. coli Rosetta II (pFAT2), purified (Ni-NTA agarose); not shown: GST, N-terminal, kept
T3 sequence (looked up): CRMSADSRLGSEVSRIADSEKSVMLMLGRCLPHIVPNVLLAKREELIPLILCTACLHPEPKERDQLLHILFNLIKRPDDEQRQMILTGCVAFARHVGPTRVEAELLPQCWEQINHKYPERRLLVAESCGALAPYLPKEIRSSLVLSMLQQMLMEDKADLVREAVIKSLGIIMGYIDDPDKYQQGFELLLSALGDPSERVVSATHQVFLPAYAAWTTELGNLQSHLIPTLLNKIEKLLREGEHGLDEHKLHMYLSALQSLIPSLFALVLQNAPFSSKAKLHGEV

untagged RELCH = target: T4, untagged RELCH (mouse, UniProt Q148V7 1-1216); test: silica bead-based liposome binding assay; silica beads coated with RE-like liposomes (DOGS-NTA(Ni), Rho-PE) prebound with 5 µM Rab11a (Q70A)-His, then 200 nM untagged RELCH, 30 min at 4°C in HKM buffer with 1 mM GTP and BSA; stained with Rab11 or RELCH antibodies; conditions: both partners purified
T4 construct: RELCH/KIAA1468, mouse, cDNA NM_173187.3, with an N-terminal PreScission protease recognition site; no limits are stated; Residues of the PreScission site may be left at the N-terminus after cleavage; source: E. coli XL-1 blue (pQE32), purified (Ni-NTA agarose), His tag removed with PreScission protease; not shown: His, N-terminal, cleaved
T4 sequence (looked up): T2 sequence (looked up)

His-RELCH [3] = target: T2, His-RELCH; test: pull-down; 10 µg GST-Rab11a Q70A (GTP) on 20 µl Glutathione Sepharose 4B, 20 µg His-RELCH in 500 µl; immunoblot with RELCH and GST antibodies; conditions: both partners purified

T1 sequence (P84077 2-181 Q71L partner, one chain of several): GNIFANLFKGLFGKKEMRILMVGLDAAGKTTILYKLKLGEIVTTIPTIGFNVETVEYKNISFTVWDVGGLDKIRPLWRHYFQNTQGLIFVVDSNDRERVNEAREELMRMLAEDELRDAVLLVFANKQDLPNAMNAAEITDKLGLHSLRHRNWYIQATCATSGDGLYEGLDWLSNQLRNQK

CC(C)[C@@H](C)/C=C/[C@@H](C)[C@H]1CC[C@H]2C3=CC=C4C[C@@H](O)CC[C@]4(C)C3=CC[C@]12C [DHE, dehydroergosterol]
liposome sterol transfer, DHE to dansyl-PE FRET (OSBP): the DHE transfer occurred in a RELCH dose-dependent manner

B1: Flag-OSBP, full length (natural protein, human, UniProt P22059 1-807, looked up)
chain: MAATELRGVVGPGPAAIAALGGGGAGPPVVGGGGGRGDAGPGSGAASGTVVAAAAGGPGPGAGGVAAAGPAPAPPTGGSGGSGAGGSGSAREGWLFKWTNYIKGYQRRWFVLSNGLLSYYRSKAEMRHTCRGTINLATANITVEDSCNFIISNGGAQTYHLKASSEVERQRWVTALELAKAKAVKMLAESDESGDEESVSQTDKTELQNTLRTLSSKVEDLSTCNDLIAKHGTALQRSLSELESLKLPAESNEKIKQVNERATLFRITSNAMINACRDFLMLAQTHSKKWQKSLQYERDQRIRLEETLEQLAKQHNHLERAFRGATVLPANTPGNVGSGKDQCCSGKGDMSDEDDENEFFDAPEIITMPENLGHKRTGSNISGASSDISLDEQYKHQLEETKKEKRTRIPYKPNYSLNLWSIMKNCIGKELSKIPMPVNFNEPLSMLQRLTEDLEYHELLDRAAKCENSLEQLCYVAAFTVSSYSTTVFRTSKPFNPLLGETFELDRLEENGYRSLCEQVSHHPPAAAHHAESKNGWTLRQEIKITSKFRGKYLSIMPLGTIHCIFHATGHHYTWKKVTTTVHNIIVGKLWIDQSGEIDIVNHKTGDKCNLKFVPYSYFSRDVARKVTGEVTDPSGKVHFALLGTWDEKMECFKVQPVIGENGGDARQRGHEAEESRVMLWKRNPLPKNAENMYYFSELALTLNAWESGTAPTDSRLRPDQRLMENGRWDEANAEKQRLEEKQRLSRKKREAEAMKATEDGTPYDPYKALWFERKKDPVTKELTHIYRGEYWECKEKQDWSSCPDIF
notes: OSBP, human, amplified from pOTB7-OSBP, in pcDNA5/FRT/TO-Flag; also called Flag-tagged OSBP; source: HEK293FT, transfected, in lysate; Flp-In–293, transfected, in lysate; not shown: Flag, N-terminal, kept
binding result (His-RELCH [1]): binds

B2: Rab11a (Q70A)-His, loaded with GTP (natural protein, mouse, UniProt P62492 1-216, looked up)
chain: MGTRDDEYDYLFKVVLIGDSGVGKSNLLSRFTRNEFNLESKSTIGVEFATRSIQVDGKTIKAQIWDTAGAERYRAITSAYYRGAVGALLVYDIAKHLTYENVERWLKELRDHADSNIVIMLVGNKSDLRHLRAVPTDEARAFAEKNGLSFIETSALDSTNVEAAFQTILTEIYRIVSQKQMSDRRENDMSPSNNVVPIHVPPTTENKPKVQCCQNI
notes: Rab11a, mouse, GTP-locked mutant Q70A, cloned without a stop codon into pET28c; Loaded with GTP in the assays; on liposomes it is held through its His tag by DOGS-NTA(Ni); also called His6×-tagged Rab11a-GTP; Rab11a-GTP; source: E. coli Rosetta II (pET28c), purified (cOmplete His-tag purification resin, EDTA wash, nucleotide-free); not shown: His6, C-terminal, kept
binding result [2]: binds | binding result (untagged RELCH): binds

B3: GST-Rab11a Q70A, loaded with GTP (natural protein, UniProt P62491 1-216, looked up)
chain: B2 chain
notes: Rab11a; GTP-locked mutant Q70A; the pFAT2 His-GST-Rab constructs were made as in Haas et al., 2005 and Yoshimura et al., 2007; also called GTP-loaded Rab11a; GST-Rab11-GTP; source: E. coli Rosetta II (pFAT2), purified (Ni-NTA agarose); not shown: GST, N-terminal, kept
binding result (His-RELCH [3]): binds
